This passage reports cAMP activity in Rinm cells, EC50 results from US20080044411A1.

This assay concerns the target GLP-1 R expressed in Rinm cells. The experiment in a line: cell-based or functional assay.

On to “GLP-1 peptide (from UniProt P01275 98-128)”, for which the cAMP activity in Rinm cells, EC50 was determined as 0.4 nM.
